# Measured values taken from EP2149585A1.
# Like-named read-outs stand apart in the source and are kept apart here.
# Assays:
# Assay in all cases: cell-based or functional assay
# [1] = target: human CD40 on normal human B cells / PBMC (human) (UniProt P25942)
# [2] = target: human CD40 on B cells within PBMC from normal human subjects (human) (UniProt P25942)
# [3] = target: human CD40 on normal human B cells / PBMC (human) (UniProt P25942); remark: listed apart in the source
# [4] = target: human CD40 on B cells in PBMC from normal human subjects (human) (UniProt P25942)
# Chain of human CD40 on B cells in PBMC from normal human subjects (human) (P25942 20-277): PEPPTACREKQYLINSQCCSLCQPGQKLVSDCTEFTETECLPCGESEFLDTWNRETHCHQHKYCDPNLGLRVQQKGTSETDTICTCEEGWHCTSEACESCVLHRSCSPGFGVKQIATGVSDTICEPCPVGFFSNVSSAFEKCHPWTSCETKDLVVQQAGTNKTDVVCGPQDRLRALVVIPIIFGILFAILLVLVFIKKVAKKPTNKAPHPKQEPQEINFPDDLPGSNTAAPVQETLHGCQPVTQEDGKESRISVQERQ
# Chain of human CD40 on B cells within PBMC from normal human subjects (human) (P25942 20-277): as above
# Chain of human CD40 on normal human B cells / PBMC (human) (P25942 20-277): as above
substance,measurement,setting,value
CD40 ligand expressed on formaldehyde-fixed CHO cells (from UniProt P29965 1-261),"Average Stimulation Index (SI), B cells+CHO-CD40L",[1],145
same,"CPM, B cells+CHO-CD40L; B cell-004 donor 1",[1],3130 CPM
same,"CPM, B cells+CHO-CD40L; B cell-005 donor 3",[1],24600 CPM
same,"CPM, B cells+CHO-CD40L; donor 2",[1],27200 CPM
same,S. index(1) = CPM (B cells+CHO-CD40L)/CPM (B cells alone); B cell-004 donor 1,[1],7.49
same,S. index(1) = CPM (B cells+CHO-CD40L)/CPM (B cells alone); B cell-005 donor 3,[1],92
same,S. index(1) = CPM (B cells+CHO-CD40L)/CPM (B cells alone); donor 2,[1],336
same,"Average SI of PBMC, index(1)",[2],11.9
same,"Average Stimulation index, S.index (1)",[2],22
same,"PBMC proliferation CPM (PBMC+CHO-CD40L), Immoblize-004",[2],11700 CPM
same,"PBMC proliferation CPM (PBMC+CHO-CD40L), PBMC-012",[2],6810 CPM
same,"PBMC proliferation CPM (PBMC+CHO-CD40L), PBMC-025 Donor#1",[2],42300 CPM
same,"PBMC proliferation CPM (PBMC+CHO-CD40L), PBMC-025 Donor#2",[2],15000 CPM
same,"PBMC proliferation CPM (PBMC+CHO-CD40L), PBMC-026 Donor#1",[2],18300 CPM
same,"PBMC proliferation CPM (PBMC+CHO-CD40L), PBMC-026 Donor#2",[2],18100 CPM
same,"PBMC proliferation CPM (PBMC+CHO-CD40L), PBMC-027 Donor#1",[2],13000 CPM
same,"PBMC proliferation CPM (PBMC+CHO-CD40L), PBMC-027 Donor#2",[2],11900 CPM
same,"PBMC proliferation CPM (PBMC+CHO-CD40L), PBMC-028 Donor#1",[2],22500 CPM
same,"PBMC proliferation CPM (PBMC+CHO-CD40L), PBMC-028 Donor#2",[2],54900 CPM
same,"PBMC proliferation CPM (PBMC+CHO-CD40L), PBMC-029 Donor#1",[2],10100 CPM
same,"PBMC proliferation CPM (PBMC+CHO-CD40L), PBMC-029 Donor#2",[2],23100 CPM
same,"PBMC proliferation CPM (PBMC+CHO-CD40L), PBMC-030 Donor#1",[2],57200 CPM
same,"PBMC proliferation CPM (PBMC+CHO-CD40L), PBMC-030 Donor#2",[2],53900 CPM
same,"PBMC proliferation CPM (PBMC+CHO-CD40L), PBMC-032 Donor#1",[2],15300 CPM
same,"PBMC proliferation S.index (1), Immoblize-004",[2],13.7
same,"PBMC proliferation S.index (1), PBMC-012",[2],30.3
same,"PBMC proliferation index(1), PBMC-025 Donor#1",[2],10.4
same,"PBMC proliferation index(1), PBMC-025 Donor#2",[2],6.63
same,"PBMC proliferation index(1), PBMC-026 Donor#1",[2],8.78
same,"PBMC proliferation index(1), PBMC-026 Donor#2",[2],26.7
same,"PBMC proliferation index(1), PBMC-027 Donor#1",[2],4.75
same,"PBMC proliferation index(1), PBMC-027 Donor#2",[2],8.89
same,"PBMC proliferation index(1), PBMC-028 Donor#1",[2],5.26
same,"PBMC proliferation index(1), PBMC-028 Donor#2",[2],25.6
same,"PBMC proliferation index(1), PBMC-029 Donor#1",[2],16.5
same,"PBMC proliferation index(1), PBMC-029 Donor#2",[2],2.99
same,"PBMC proliferation index(1), PBMC-030 Donor#1",[2],13.7
same,"PBMC proliferation index(1), PBMC-030 Donor#2",[2],16.2
same,"PBMC proliferation index(1), PBMC-032 Donor#1",[2],8.45
same,"CPM, B cells + CHO-CD40L; B cell-004 donor 2",[3],27200 CPM
same,"CPM, B cells+CHO-CD40L; B cell-004 donor 1",[3],3130 CPM
same,"CPM, B cells+CHO-CD40L; B cell-005 donor 3",[3],24600 CPM
same,"CPM, PBMC+CHO-CD40L (tritiated thymidine); PBMC-025 Donor#1",[3],42300 CPM
same,"CPM, PBMC+CHO-CD40L (tritiated thymidine); PBMC-025 Donor#2",[3],15000 CPM
same,"CPM, PBMC+CHO-CD40L (tritiated thymidine); PBMC-026 Donor#1",[3],19100 CPM
same,"CPM, PBMC+CHO-CD40L (tritiated thymidine); PBMC-026 Donor#2",[3],17800 CPM
same,"CPM, PBMC+CHO-CD40L (tritiated thymidine); PBMC-028 Donor#1",[3],22500 CPM
same,"CPM, PBMC+CHO-CD40L (tritiated thymidine); PBMC-028 Donor#2",[3],54900 CPM
same,"CPM, PBMC+CHO-CD40L (tritiated thymidine); PBMC-029 Donor#1",[3],10100 CPM
same,"CPM, PBMC+CHO-CD40L (tritiated thymidine); PBMC-029 Donor#2",[3],23100 CPM
same,"CPM, PBMC+CHO-CD40L (tritiated thymidine); PBMC-030 Donor#1",[3],53400 CPM
same,"CPM, PBMC+CHO-CD40L (tritiated thymidine); PBMC-030 Donor#2",[3],53800 CPM
same,"CPM, PBMC+CHO-CD40L (tritiated thymidine); PBMC-032 Donor#1",[3],14100 CPM
same,"Average SI of PBMC, index(1), PBMC+CHO-CD40L",[4],5.09
same,"CPM, PBMC+CHO-CD40L (PBMC-010)",[4],5280 CPM
same,"CPM, PBMC+CHO-CD40L (PBMC-011 Donor#1)",[4],8250 CPM
same,"CPM, PBMC+CHO-CD40L (PBMC-011 Donor#2)",[4],11600 CPM
same,"CPM, PBMC+CHO-CD40L (PBMC-011 Donor#3)",[4],7960 CPM
same,"CPM, PBMC+CHO-CD40L (PBMC-011 Donor#4)",[4],14300 CPM
same,"CPM, PBMC+CHO-CD40L (PBMC-014)",[4],8790 CPM
same,"CPM, PBMC+CHO-CD40L (PBMC-015 Donor#1)",[4],12900 CPM
same,"CPM, PBMC+CHO-CD40L (PBMC-015 Donor#2)",[4],19100 CPM
same,"CPM, PBMC+CHO-CD40L (PBMC-015 Donor#3)",[4],19800 CPM
same,"CPM, PBMC+CHO-CD40L (PBMC-016)",[4],15800 CPM
same,"index(1), PBMC+CHO-CD40L (PBMC-010)",[4],3.73
same,"index(1), PBMC+CHO-CD40L (PBMC-011 Donor#1)",[4],3.86
same,"index(1), PBMC+CHO-CD40L (PBMC-011 Donor#2)",[4],4.87
same,"index(1), PBMC+CHO-CD40L (PBMC-011 Donor#3)",[4],2.46
same,"index(1), PBMC+CHO-CD40L (PBMC-011 Donor#4)",[4],3.41
same,"index(1), PBMC+CHO-CD40L (PBMC-014)",[4],3.74
same,"index(1), PBMC+CHO-CD40L (PBMC-015 Donor#1)",[4],3.94
same,"index(1), PBMC+CHO-CD40L (PBMC-015 Donor#2)",[4],3.14
same,"index(1), PBMC+CHO-CD40L (PBMC-015 Donor#3)",[4],8
same,"index(1), PBMC+CHO-CD40L (PBMC-016)",[4],13.8
